Measurements taken from the supplement of paper PMC9112550, “Optimization of the antimicrobial peptide Bac7 by deep mutational scanning” (BMC Biology, 2022).

Test system: Escherichia coli TOP10
Test: shrunken log2 fold change of peptide-encoding DNA abundance (4.5 h post-induction vs induction); higher = less antimicrobial activity (less host growth inhibition)
Conditions: time post-induction: 4.5 h; library: site-saturation at positions 5, 18, 19, 20
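Further: peptides expressed intracellularly from a pBAD plasmid library in pooled LB shake-flask culture, induced with 0.3% L-arabinose, DNA abundance read by NGS, three biological replicates, DESeq2 with apeglm shrinkage.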

Sequence | shrunken log2 fold change
RRIRPRPPRLPRPRPRPWIYPRP | -0.584
RRIRCRPPRLPRPRPRPAHSPRP | -0.129
RRIRQRPPRLPRPRPRPWRWPRP | -0.0392
RRIRARPPRLPRPRPRPPQLPRP | 0.753
RRIRVRPPRLPRPRPRPKQHPRP | -0.301
RRIRERPPRLPRPRPRPQHRPRP | 0.152
RRIRVRPPRLPRPRPRPIRTPRP | 0.782
RRIRCRPPRLPRPRPRPHPGPRP | -0.156
RRIRDRPPRLPRPRPRPIGPPRP | 0.0272
RRIRRRPPRLPRPRPRPFFCPRP | 0.167
RRIRNRPPRLPRPRPRPVASPRP | -0.0843
RRIRFRPPRLPRPRPRPGVEPRP | 0.112
RRIRPRPPRLPRPRPRPYFNPRP | -0.619
RRIRFRPPRLPRPRPRPSQPPRP | -0.0776
RRIRARPPRLPRPRPRPKHAPRP | 0.757
RRIRFRPPRLPRPRPRPASMPRP | -0.146
RRIRYRPPRLPRPRPRPETMPRP | -0.062
RRIRFRPPRLPRPRPRPYWHPRP | -0.754
RRIRMRPPRLPRPRPRPISVPRP | 0.103
RRIRMRPPRLPRPRPRPGWRPRP | 1.15
RRIRRRPPRLPRPRPRPSAPPRP | 0.418
RRIRTRPPRLPRPRPRPNHDPRP | -0.3
RRIRVRPPRLPRPRPRPCIIPRP | -0.0793
RRIRDRPPRLPRPRPRPRIQPRP | -0.0934
RRIRYRPPRLPRPRPRPDCFPRP | -0.0906

Sequence | shrunken log2 fold change
RRIRKRPPRLPRPRPRPPSQPRP | 0.866
RRIRERPPRLPRPRPRPSMHPRP | -0.451
RRIRIRPPRLPRPRPRPEELPRP | -0.0241
RRIRGRPPRLPRPRPRPFHWPRP | 0.134
RRIRARPPRLPRPRPRPVNTPRP | -0.0807
RRIRLRPPRLPRPRPRPCYQPRP | -0.476
RRIRHRPPRLPRPRPRPDHSPRP | -0.00651
RRIRARPPRLPRPRPRPADTPRP | 0.0859
RRIRWRPPRLPRPRPRPYTWPRP | -0.397
RRIRDRPPRLPRPRPRPVEVPRP | 0.43
RRIRFRPPRLPRPRPRPMGQPRP | -0.0471
RRIRTRPPRLPRPRPRPWIPPRP | -0.2
RRIRIRPPRLPRPRPRPFTEPRP | 0.0282
RRIRFRPPRLPRPRPRPRKKPRP | 0.14
RRIRCRPPRLPRPRPRPHRKPRP | -0.0176
RRIRMRPPRLPRPRPRPKIIPRP | 0.102
RRIRRRPPRLPRPRPRPPWKPRP | 0.0487
RRIRPRPPRLPRPRPRPDYRPRP | -0.321
RRIRERPPRLPRPRPRPPSFPRP | -0.126
RRIRLRPPRLPRPRPRPDAWPRP | 0.457
RRIRGRPPRLPRPRPRPRPHPRP | 0.51
RRIRLRPPRLPRPRPRPLDLPRP | -0.481
RRIRIRPPRLPRPRPRPRMHPRP | -0.0356
RRIRDRPPRLPRPRPRPYYDPRP | -0.621
RRIRQRPPRLPRPRPRPSRVPRP | -0.00679

Sequence | shrunken log2 fold change
RRIRKRPPRLPRPRPRPEPMPRP | 0.504
RRIRERPPRLPRPRPRPFDAPRP | -0.0912
RRIRGRPPRLPRPRPRPHWDPRP | 0.645
RRIRRRPPRLPRPRPRPSLLPRP | 0.17
RRIRSRPPRLPRPRPRPCVEPRP | 0.0654
RRIRCRPPRLPRPRPRPQGEPRP | 0.161
RRIRRRPPRLPRPRPRPQLGPRP | 0.0467
RRIRGRPPRLPRPRPRPCASPRP | 0.557
RRIRFRPPRLPRPRPRPMWRPRP | -0.0033
RRIRPRPPRLPRPRPRPDYTPRP | -0.957
RRIRGRPPRLPRPRPRPLWEPRP | 1.51
RRIRGRPPRLPRPRPRPKMTPRP | 1.83
RRIRQRPPRLPRPRPRPWIFPRP | -0.0561
RRIRCRPPRLPRPRPRPRKEPRP | 0.239
RRIRMRPPRLPRPRPRPFCIPRP | -0.288
RRIRKRPPRLPRPRPRPETAPRP | 1.21
RRIRYRPPRLPRPRPRPSRQPRP | -0.114
RRIRTRPPRLPRPRPRPRTGPRP | 0.312
RRIRRRPPRLPRPRPRPARFPRP | 0.709
RRIRERPPRLPRPRPRPGSGPRP | 0.101
RRIRIRPPRLPRPRPRPPVSPRP | -0.116
RRIRWRPPRLPRPRPRPLMTPRP | 0.47
RRIRPRPPRLPRPRPRPLTYPRP | -0.0089
RRIRNRPPRLPRPRPRPIMAPRP | -0.187
RRIRYRPPRLPRPRPRPVKNPRP | -0.381

Sequence | shrunken log2 fold change
RRIRDRPPRLPRPRPRPKGRPRP | 0.218
RRIRTRPPRLPRPRPRPFVFPRP | -0.295
RRIRNRPPRLPRPRPRPYPNPRP | -0.3
RRIRTRPPRLPRPRPRPHQEPRP | -0.163
RRIRMRPPRLPRPRPRPSLAPRP | 0.566
RRIRNRPPRLPRPRPRPPHSPRP | 0.183
RRIRIRPPRLPRPRPRPGQKPRP | -0.0432
RRIRVRPPRLPRPRPRPLERPRP | -0.0607
RRIRCRPPRLPRPRPRPYADPRP | -0.037
RRIRFRPPRLPRPRPRPQGVPRP | 0.103
RRIRRRPPRLPRPRPRPGFLPRP | -0.0551
RRIRSRPPRLPRPRPRPCIAPRP | -0.22
RRIRTRPPRLPRPRPRPDRKPRP | 0.00258
RRIRVRPPRLPRPRPRPCKCPRP | -0.239
RRIRDRPPRLPRPRPRPWDPPRP | 0.0959
RRIRCRPPRLPRPRPRPVWTPRP | 0.0232
RRIRLRPPRLPRPRPRPWTLPRP | 0.00677
RRIRYRPPRLPRPRPRPIEYPRP | -0.0912
RRIRMRPPRLPRPRPRPNSMPRP | -0.22
RRIRMRPPRLPRPRPRPRDNPRP | 0.455
RRIRGRPPRLPRPRPRPCGNPRP | 0.255
RRIRRRPPRLPRPRPRPNGMPRP | -0.0764
RRIRFRPPRLPRPRPRPCVNPRP | -0.121
RRIRKRPPRLPRPRPRPNPWPRP | 0.00515
RRIRWRPPRLPRPRPRPTCAPRP | 0.868

Sequence | shrunken log2 fold change
RRIRFRPPRLPRPRPRPKQRPRP | 0.384
RRIRYRPPRLPRPRPRPNLSPRP | -0.0996
RRIRHRPPRLPRPRPRPTRAPRP | 0.348
RRIRARPPRLPRPRPRPRPPPRP | 1.26
RRIRLRPPRLPRPRPRPPGGPRP | 0.664
RRIRPRPPRLPRPRPRPVHPPRP | 0.127
RRIRQRPPRLPRPRPRPYKIPRP | -0.568
RRIRPRPPRLPRPRPRPDPMPRP | 0.4
RRIRTRPPRLPRPRPRPKMDPRP | 0.0289
RRIRFRPPRLPRPRPRPEVTPRP | -0.0331
RRIRIRPPRLPRPRPRPCYVPRP | -0.411
RRIRWRPPRLPRPRPRPDRWPRP | 0.827
RRIRWRPPRLPRPRPRPIREPRP | 0.411
RRIRQRPPRLPRPRPRPDVPPRP | 0.0169
RRIRVRPPRLPRPRPRPTCPPRP | 0.243
RRIRCRPPRLPRPRPRPQMYPRP | -0.14
RRIRERPPRLPRPRPRPQTWPRP | 0.138
RRIRPRPPRLPRPRPRPRWGPRP | 0.509
RRIRWRPPRLPRPRPRPDWYPRP | -0.268
RRIRMRPPRLPRPRPRPIVAPRP | 0.156
RRIRQRPPRLPRPRPRPAFEPRP | -0.0876
RRIRIRPPRLPRPRPRPPMLPRP | -0.382
RRIRVRPPRLPRPRPRPLAQPRP | 0.187
RRIRWRPPRLPRPRPRPKEVPRP | 0.0717
RRIRGRPPRLPRPRPRPHKCPRP | -0.111
